# Measurements taken from PMC5464773.
# Molecular target: Myc-tagged Bfl-1 (human) (UniProt Q16548)
# Experiment: fluorescence polarisation; competition: 0–10 μM unlabeled peptide titrated into 50 nM c-myc-tagged receptor plus 25 nM fluoresceinated BIM; 25 mM Tris pH 7.8, 50 mM NaCl, 1 mM EDTA, 5% DMSO, 0.001% v/v Triton-X; 23°C, 3 hr; fit to a complete competitive binding model
# Chain of Myc-tagged Bfl-1 (human) (Q16548 whole entry): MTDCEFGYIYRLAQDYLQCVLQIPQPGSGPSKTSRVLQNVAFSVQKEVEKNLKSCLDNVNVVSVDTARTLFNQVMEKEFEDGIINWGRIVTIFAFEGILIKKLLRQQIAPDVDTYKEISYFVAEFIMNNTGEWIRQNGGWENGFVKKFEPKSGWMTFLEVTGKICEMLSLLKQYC
substance,measurement,value
BIM BH3 peptide (unlabeled) (peptide; other documents disagree on this pair),Ki,< 0.1 nM
